According to patent publication US20200407723, “APTAMER BASED AFFINITY CAPTURE METHODS FOR THE SELECTIVE ENRICHMENT OF HUMAN IMMUNOGLOBULIN FC DOMAINS” (Waters Technologies Corporation, published 2020):

Tests used:
[1] = biological target: NISTmAb humanized IgG1 (Fc domain) (UniProt P01857-1 P01857-1:99-330); assay: pulldown; from rat plasma, 12.5 ug aptamer, about 85% of 100 ug recovered, purity 10.6% to 72.4%; bound mAb to plasma protein ratio near 7:3; retained in 5 mM CaCl2 Tris; settings: chain copies: 2; label: 5'-biotin
Method: 280 nm, Em. 370 nm) and re-calculated according to the chromatographic purity assessment. […] After purification, about 85% of the spiked NIST mAb was recovered with purity increasing from 10.6% to 72.4%.
The small portion of impurity in the purified NIST mAb eluate was determined to be the non-specific binding of rat plasma endogenous proteins to the aptamer. The competition in binding between NIST mAb and plasma protein was investigated by loading 20 μL of rat plasma containing 50 μg of NIST mAb onto an increasing amount of immobilized aptamer (5 μg, 12.5 μg, 25 μg). The result of this experiment is summarized in FIG. 8D-E. From which, it is possible to observe that the binding ratio of NIST mAb to plasma protein is close to 7:3 (from UV measurement) for the current experimental approach.
To test out this optional protocol step, 20 μL of plasma and 25 μg of NIST mAb were diluted with binding buffer to 200 μL then loaded onto 40 μL of streptavidin resin wherein 5 μg of aptamer was non-covalently immobilized. […] Herein, the second washing and elution fractions were collected and analyzed by LC-UV analysis. […]

bovine serum albumin = bovine serum albumin (Bos taurus, UniProt P02769 P02769:25-607); assay: pulldown; negative control; negligible non-specific binding in Tris with Mg2+; high non-specific binding with Zn2+, especially without NaCl; settings: tags: Sigma-Aldrich; label: 5'-biotin
Chain of bovine serum albumin (P02769 25-607, one chain of several): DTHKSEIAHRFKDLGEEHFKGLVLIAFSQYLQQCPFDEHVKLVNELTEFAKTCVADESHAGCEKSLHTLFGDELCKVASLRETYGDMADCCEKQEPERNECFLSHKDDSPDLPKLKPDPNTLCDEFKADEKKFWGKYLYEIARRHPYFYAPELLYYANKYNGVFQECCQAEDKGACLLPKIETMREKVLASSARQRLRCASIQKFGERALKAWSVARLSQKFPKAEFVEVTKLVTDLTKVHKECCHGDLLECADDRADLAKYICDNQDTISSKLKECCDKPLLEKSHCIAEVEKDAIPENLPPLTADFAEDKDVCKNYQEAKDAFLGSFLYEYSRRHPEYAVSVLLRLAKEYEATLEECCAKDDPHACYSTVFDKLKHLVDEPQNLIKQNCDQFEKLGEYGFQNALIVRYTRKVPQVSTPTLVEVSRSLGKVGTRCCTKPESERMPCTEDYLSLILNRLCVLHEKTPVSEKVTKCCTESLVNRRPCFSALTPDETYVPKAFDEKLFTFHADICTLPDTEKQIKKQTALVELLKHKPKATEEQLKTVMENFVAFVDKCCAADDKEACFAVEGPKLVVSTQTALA
Method: A positive pressure manifold (commercially available from Waters Technologies Corporation, Milford, Mass.) was utilized to drive flow through the filter plate. The amount of aptamer immobilized was determined by abosorbance at 260 nm using a DS-11 spectrophotometer (commercially available from DeNovix Inc., Wilmington, Del.). This non-covalently immobilized aptamer affinity resin was used to perform the affinity capture of 100 μg human IgG (IgG from human serum, commercially available from Sigma-Aldrich (now MilliporeSigma), St. Louis, Mo.) contained within 200 μL of several different binding buffers (specified below). After 1 hour of mixing, the resin was washed with two repeated 200 μL volumes to remove any unbound protein. Combined hIgG flow-through and washing fractions were saved to determine the amount of hIgG breakthrough. […] The eluate was saved for hIgG recovery measurements using a fluorescence plate reader (Ex. 280 nm, Em. 370 nm; Gemini™ XPS plate reader, commercially available from Molecular Devices, San Jose, Calif.).
The presence of divalent cations in the binding buffer has the potential to facilitate the activation of the aptamer affinity motif, yet it could also instigate non-specific binding. […] After binding and washing steps, captured proteins were eluted with elution buffer and protein recovery in each eluate was measured using a fluorescence plate reader.

B1: anti-human Fc 23-nt aptamer SEQ ID NO 1 (mixed)
RNA: GGAGGUGCUCCGAAAGGAACUCC
modifications: 2'-F U at 6, 9, 21; 2'-F C at 20; ribonucleotides at A3, G4, G5, G7, G16, G17; all other positions deoxyribonucleotides
binding result [1]: binds
binding result (bovine serum albumin): no binding
